Reference: patent publication US20230348852A1, “METHODS AND COMPOSITIONS FOR OCULAR CELL THERAPY” (NOVARTIS AG, priority 2020, published 2023)

Experiments:
[1] = system: B2M; assay: sgRNA screening for B2M knockout in LSCs (nucleofection, FACS); type: cell-based, human; conditions: Cas9 protein SEQ ID NO: 106, LSCs at passage 3, FACS after around 3 days
Procedure: Cells were cultured under these conditions for 24-48 hours at 37° C. in 5% CO2.
LSCs were nuclofected with selected gRNAs (Table 6) followed by FACS analysis / MACS separation.
After scraping the cells, the reaction was stopped by using cell culture medium containing 10% Serum and transferred to a falcon tube. After counting cells using Vi-cell 300′000 cells were prepared per reaction by transferring 300′000 cells in single tubes and centrifuged at 1000 rpm for 5 min. The supernatant was aspirated using manually pipetting to avoid cell loss and the cells were resuspended in the Stem cell nucleofector solution II (Lonza, Cat #VPH-5022). Resuspend cells in nucleofector solution immediately before adding the Cas9 RNP:sgRNA mixture. To obtain the nucleofection mixture, 5 µg high concentrated (≥5 µg/µl) Cas9 protein of SEQ ID NO: 106 (volume = 0.78 µl) was mixed with 19.5 µg sgRNA of Table 6 (volume = 12.2 µl) and incubated for 20 min at room temperature. […] The Cas9 protein-guideRNA complex was added to the cell suspension and transferred to the electroporation cuvette immediately. Cells were transfected using the nucelofector device (Lonza, Amaxa Nucleofector II) and program A023. After nucleofection cells were transferred from cuvette to one well of a 24 well synthemax coated plate containing pre-warmed LSC medium including 3 µM LATS compound and 10 µM Rock inhibitor Y-27632 (Nature 1997, vol. 389, pp. 990-994). Incubate LSCs in a 5% CO2 incubator for around 3 days until cells are 90% confluent.
LSCs were treated with TryLE®Express Enzym (ThermoFisher, Cat #12605010) for 15 minutes in 5% CO2 at 37° C. After scraping the cells, the reaction was stopped by using cell culture medium containing 10% Serum and transferred to a falcon tube for a centrifugation step (1000 rpm, 5 minutes). After aspirating the medium cells were resuspended in 200 µl FACS buffer (PBS/10%FBS).
(§1) To analyze the expression of B2M and HLA-ABC, 5 µl APC mouse anti-human β2-microglobulin antibody (Biolegend, Cat#316312) and 20 µl PE mouse anti-human HLA-ABC antibody (BD Bioscience, Cat # 560168) were added to the cell suspension and incubated for 30 minutes on ice.
Cells were washed 3 times after antibody labelling with FACS buffer and resuspended in 200 µl in FACS buffer (depending on the cell number).
FACS data were analyzed using BD FACSDiva software and FlowJo software.

[2] = system: genomic DNA purified from male human peripheral blood mononuclear cells; assay: Biochemical assay for potential off-target genomic sites cleaved by Cas9 and B2M guides; conditions: number of potential off-target sites, guide concentration 64 nM
Procedure: A biochemical method (See, e.g., Cameron et al., Nature Methods. 6, 600-606; 2017) was used to determine potential off-target genomic sites cleaved by Cas9 and selected B2M guides. Guides showing B2M indel activity were tested for potential off-target genomic cleavage sites with this assay. […] The number of potential off-target sites detected using a guide concentration of 64 nM in the biochemical assay are shown in Table 10. As a result of this analysis, several gRNAs were selected for analysis of potential off-target activity in limbal stem cells.

[3] = system: B2M; assay: Targeted PCR and NGS (amplicon sequencing) of on-target and off-target sites in genome-edited LSCs; type: cell-based, human; conditions: for validated indels for off-target activity in LSCs: amplicon sequencing of potential off-target loci; for Number of sites positive for off-target activity in LSCs: of the potential off-target loci sequenced; for B2M purified rhAmpSeq indel: purified (B2M negative) LSC populations
Procedure: Potential CRISPR/Cas9-mediated cutting sites identified above were evaluated using targeted PCR and NGS in genome-edited expanded LSCs.
Selected sgRNAs (SEQ ID NO: 120, 162, 166, 167, 171, and 175) were further analyzed by amplicon sequencing in edited and non-edited cells. Primers flanking the potential off-target sites for each guide were used to detect indels by NGS analysis in edited LSCs and non-edited peripheral blood mononuclear cells. Sites that had either (1) a difference in mean indel percentage between edited and unedited cells greater than 0.5%; or (2) a p value less than 0.05 between edited and unedited indel were further analyzed. NGS sequence reads for such sites were assessed for characteristic indel patterns near the putative Cas9 cut site. Based on the results, we could assess the specificity of gRNAs and their suitability for therapeutic applications.

[4] = system: human B2M; assay: CRISPR/Cas9-mediated deletion of B2M in HEK293 (lipofection, FACS); type: cell-based; conditions: lipofection of tracrRNA, gRNA and Cas9 mRNA; FACS after 72 h
Procedure: One day before transfection, 500′000 HEK293cells (ATCC, Manassas, VA) were plated in a 35 mm dish and grown in DMEM/10%FBS. The following day, cells were transfected with a mixture of tracrRNA-gRNA-Cas9 mRNA. A stock of 10 micromolar was prepared resuspending 20 nanomoles of gRNA and 20 nanomoles tracrRNA in 2000 microlitre 10 millimolar Tris buffer pH7.4 each.
The mixture was added drop wise to the culture dish in 2.5 ml DMEM/10%FBS medium. The transfection reagent alone represented the transfection negative control.
After 6 h incubation in 5% CO2 at 37° C. medium was replaced with fresh DMEM/10%FBS medium. After 72 h in a 5% CO2 incubator cells were prepared for FACS analysis. FACS analysis: HEK293 cells were treated with Accutase (ThermoFisher, Cat # A1110501) for 20 minutes in 5% CO2 at 37° C. The reaction was stopped by using cell culture medium containing 10% Serum and transferred to a falcon tube for a centrifugation step (1000 rpm, 5 minutes). After aspirating the medium cells were resuspended in 200 microlitre FACS buffer (PBS/10%FBS).
as §1, with “microlitre” for “µl”, “Cat #316312)” for “Cat#316312)”, “ice. Cells were washed 3 times after antibody labelling with FACS buffer and resuspended in 500 microlitre in FACS buffer.” for “ice.”
Each sample was transferred to one well of a round bottom 96 well plate and analyzed on a BD LSRFortessa X-20 device. FACS data were analyzed using BD FACSDiva software.

Molecule | B2M knockout efficiency in LSCs after nucleofection [1] [%] | off-target Site_ Count [2] | B2M knockout efficiency in HEK293 [4] [%] | also measured
CR000442: gRNA targeting human B2M; targeting domain SEQ ID NO: 134; sgRNA SEQ ID NO: 171 (nucleic acid, listed as RNA, chemistry not given here) guide: GGCCACGGAGCGAGACAUCUGUUUUAGAGCUAGAAAUAGCAAGUUAAAAUAAGGCUAGUCCGUUAUCAACUUGAAAAAGUGGCACCGAGUCGGUGCUUUU | 62 | 29 | – | validated indels for off-target activity in LSCs [3]: zero; Number of sites positive for off-target activity in LSCs [3]: 0 of 28; Number of sites positive for off-target activity in LSCs ([3]; listed as SEQ ID NO: 171): no predicted sites tested positive for off-target activity; B2M purified rhAmpSeq indel [3]: 99.10±0.26%; B2M purified rhAmpSeq indel ([3]; listed as SEQ ID NO: 171): ~ 99%
5-CR004366: gRNA targeting human B2M; targeting domain SEQ ID NO: 112; sgRNA SEQ ID NO: 163; from Dharmacon (nucleic acid, listed as RNA, chemistry not given here, gRNA targeting human B2M; from Dharmacon) guide: CUGAAUCUUUGGAGUACCUGGUUUUAGAGCUAGAAAUAGCAAGUUAAAAUAAGGCUAGUCCGUUAUCAACUUGAAAAAGUGGCACCGAGUCGGUGCUUUU | 2 | – | 33 | –
2-CR004366: gRNA targeting human B2M; targeting domain SEQ ID NO: 109; sgRNA SEQ ID NO: 160; from Dharmacon (nucleic acid, listed as RNA, chemistry not given here, gRNA targeting human B2M; from Dharmacon) guide: CGUGAGUAAACCUGAAUCUUGUUUUAGAGCUAGAAAUAGCAAGUUAAAAUAAGGCUAGUCCGUUAUCAACUUGAAAAAGUGGCACCGAGUCGGUGCUUUU | 2 | – | 33 | –
CR000443: gRNA targeting human B2M; targeting domain SEQ ID NO: 135; sgRNA SEQ ID NO: 172 (nucleic acid, listed as RNA, chemistry not given here) guide: CGCGAGCACAGCUAAGGCCAGUUUUAGAGCUAGAAAUAGCAAGUUAAAAUAAGGCUAGUCCGUUAUCAACUUGAAAAAGUGGCACCGAGUCGGUGCUUUU | 25 | 117 | – | –
CR000455: gRNA targeting human B2M; targeting domain SEQ ID NO: 138; sgRNA SEQ ID NO: 175 (nucleic acid, listed as RNA, chemistry not given here) guide: UUACCCCACUUAACUAUCUUGUUUUAGAGCUAGAAAUAGCAAGUUAAAAUAAGGCUAGUCCGUUAUCAACUUGAAAAAGUGGCACCGAGUCGGUGCUUUU | 24 | 48 | – | validated indels for off-target activity in LSCs [3]: zero; Number of sites positive for off-target activity in LSCs [3]: 0 of 46; Number of sites positive for off-target activity in LSCs ([3]; listed as SEQ ID NO: 175): no predicted sites tested positive for off-target activity; B2M purified rhAmpSeq indel [3]: 99.33±0.32%; B2M purified rhAmpSeq indel ([3]; listed as SEQ ID NO: 175): ~ 99%
CR000456: gRNA targeting human B2M; targeting domain SEQ ID NO: 139; sgRNA SEQ ID NO: 176 (nucleic acid, listed as RNA, chemistry not given here) guide: CUUACCCCACUUAACUAUCUGUUUUAGAGCUAGAAAUAGCAAGUUAAAAUAAGGCUAGUCCGUUAUCAACUUGAAAAAGUGGCACCGAGUCGGUGCUUUU | 3 | 66 | – | –
11-HEYJA000008: gRNA targeting human B2M; targeting domain SEQ ID NO: 118; sgRNA SEQ ID NO: 169 (nucleic acid, listed as RNA, chemistry not given here) guide: CCACCUCUUGAUGGGGCUAGGUUUUAGAGCUAGAAAUAGCAAGUUAAAAUAAGGCUAGUCCGUUAUCAACUUGAAAAAGUGGCACCGAGUCGGUGCUUUU | 1 | – | 3 | –
CR000446: gRNA targeting human B2M; targeting domain SEQ ID NO: 136; sgRNA SEQ ID NO: 173 (nucleic acid, listed as RNA, chemistry not given here) guide: AGGGUAGGAGAGACUCACGCGUUUUAGAGCUAGAAAUAGCAAGUUAAAAUAAGGCUAGUCCGUUAUCAACUUGAAAAAGUGGCACCGAGUCGGUGCUUUU | 27 | 98 | – | –
CR006979: gRNA targeting human B2M; targeting domain SEQ ID NO: 140; sgRNA SEQ ID NO: 177 (nucleic acid, listed as RNA, chemistry not given here) guide: UCCUGAAUUGCUAUGUGUCUGUUUUAGAGCUAGAAAUAGCAAGUUAAAAUAAGGCUAGUCCGUUAUCAACUUGAAAAAGUGGCACCGAGUCGGUGCUUUU | 2 | – | – | –
3-CR004366: gRNA targeting human B2M; targeting domain SEQ ID NO: 110; sgRNA SEQ ID NO: 161; from Dharmacon (nucleic acid, listed as RNA, chemistry not given here, gRNA targeting human B2M; from Dharmacon) guide: AAGUCAACUUCAAUGUCGGAGUUUUAGAGCUAGAAAUAGCAAGUUAAAAUAAGGCUAGUCCGUUAUCAACUUGAAAAAGUGGCACCGAGUCGGUGCUUUU | 2 | – | 12 | –
6-HEYJA000001: gRNA targeting human B2M; targeting domain SEQ ID NO: 113; sgRNA SEQ ID NO: 164 (nucleic acid, listed as RNA, chemistry not given here) guide: GGCCGAGAUGUCUCGCUCCGGUUUUAGAGCUAGAAAUAGCAAGUUAAAAUAAGGCUAGUCCGUUAUCAACUUGAAAAAGUGGCACCGAGUCGGUGCUUUU | 33 | 8 | 47 | –
10-HEYJA000007: gRNA targeting human B2M; targeting domain SEQ ID NO: 117; sgRNA SEQ ID NO: 168 (nucleic acid, listed as RNA, chemistry not given here) guide: AGUCACAUGGUUCACACGGCGUUUUAGAGCUAGAAAUAGCAAGUUAAAAUAAGGCUAGUCCGUUAUCAACUUGAAAAAGUGGCACCGAGUCGGUGCUUUU | 1 | – | 13 | –
7-HEYJA000003: gRNA targeting human B2M; targeting domain SEQ ID NO: 114; sgRNA SEQ ID NO: 165 (nucleic acid, listed as RNA, chemistry not given here) guide: CUCGCGCUACUCUCUCUUUCGUUUUAGAGCUAGAAAUAGCAAGUUAAAAUAAGGCUAGUCCGUUAUCAACUUGAAAAAGUGGCACCGAGUCGGUGCUUUU | 8 | – | 37 | –
CR000453: gRNA targeting human B2M; targeting domain SEQ ID NO: 137; sgRNA SEQ ID NO: 174 (nucleic acid, listed as RNA, chemistry not given here) guide: CACAGCCCAAGAUAGUUAAGGUUUUAGAGCUAGAAAUAGCAAGUUAAAAUAAGGCUAGUCCGUUAUCAACUUGAAAAAGUGGCACCGAGUCGGUGCUUUU | 5 | 82 | – | –
